The values below come from patent US20170218066A1 (SORRENTO THERAPEUTICS, published 2017).

The chains are these.
B1: H6B1L-EV (antibody, V domains shown)
VH: QMQLVQSGAEVKKPGSSVKVSCKASGGTFSSYAYSWVRQAPGQGLEWMGGIIPSFGTANYAQKFQGRVTITADESTSTAYMELSSLRSEDTAVYYCARGPIVATITPLDYWGQGTLVTVSS
VL: SYVLMQPPSVSVAPGKTATIACGGENIGRKTVHWYQQKPGQAPVLVIYYDSDRPSGIPERFSGSNSGNTATLTISRVEAGDEADYYCLVWDSSSDHRIFGGGTKLTVL
notes: Fully human antibody of an IgG class, light chain variant of H6B1L
B2: H6B1L (antibody, V domains shown)
VH: QMQLVQSGAEVKKPGSSVKVSCKASGGTFSSYAYSWVRQAPGQGLEWMGGIIPSFGTANYAQKFQGRVTITADESTSTAYMELSSLRSEDTAVYYCARGPIVATITPLDYWGQGTLVTVSS
VL: SYELMQPPSVSVAPGKTATIACGGENIGRKTVHWYQQKPGQAPVLVIYYDSDRPSGIPERFSGSNSGNTATLTISRVEAGDEADYYCLVWDSSSDHRIFGGGTKLTVL
notes: Fully human antibody of an IgG class; also called parent antibody H6B1L; wild type antibody H6B1L
B3: H6B1L-EM (antibody, V domains shown)
VH: QMQLVQSGAEVKKPGSSVKVSCKASGGTFSSYAYSWVRQAPGQGLEWMGGIIPSFGTANYAQKFQGRVTITADESTSTAYMELSSLRSEDTAVYYCARGPIVATITPLDYWGQGTLVTVSS
VL: SYVLTQPPSVSVAPGKTATIACGGENIGRKTVHWYQQKPGQAPVLVIYYDSDRPSGIPERFSGSNSGNTATLTISRVEAGDEADYYCLVWDSSSDHRIFGGGTKLTVL
notes: as for B1

In this assay the target is T1, human PD-L1 (human, UniProt Q9NZQ7 19-238, limits assumed).
T1 construct: also called Programmed death ligand 1; B7-H1
T1 sequence (Q9NZQ7 19-238 limits assumed): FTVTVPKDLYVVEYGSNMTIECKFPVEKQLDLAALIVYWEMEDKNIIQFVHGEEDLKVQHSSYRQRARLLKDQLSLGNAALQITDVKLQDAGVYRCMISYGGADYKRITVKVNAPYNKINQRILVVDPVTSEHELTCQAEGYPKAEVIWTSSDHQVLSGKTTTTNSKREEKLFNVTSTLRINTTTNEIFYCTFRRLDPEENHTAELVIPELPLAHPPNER
Briefly: Biacore (SPR).
One may read the Kd as the constant that tells how readily two partners part at equilibrium. One may read the koff as the first-order rate constant of dissociation. High values mean fast dissociation, low ones slow dissociation. By kon is commonly meant the second-order rate constant of association. Read a low kon as slower complex formation. Take B1: the Ka worked out at 5.48e+08 M⁻¹, the Kd was 1.82 nM, the koff was found to be 0.00287 s⁻¹ and the kon was 1.57e+06 M⁻¹ s⁻¹.

B2 yielded a Ka of 5.4e+08 M⁻¹, a Kd of 1.85 nM, a koff of 0.0028 s⁻¹ and a kon of 1.51e+06 M⁻¹ s⁻¹.

In the case of B3, the Ka turned out to be 6.44e+08 M⁻¹, the Kd was 1.55 nM, the koff was 0.00214 s⁻¹ and the kon came out at 1.38e+06 M⁻¹ s⁻¹.
